Molecular target: T1, IL-2Rβ ectodomain (SPR, Figure 4A) (human, UniProt P14784 27-240)
T1 chain: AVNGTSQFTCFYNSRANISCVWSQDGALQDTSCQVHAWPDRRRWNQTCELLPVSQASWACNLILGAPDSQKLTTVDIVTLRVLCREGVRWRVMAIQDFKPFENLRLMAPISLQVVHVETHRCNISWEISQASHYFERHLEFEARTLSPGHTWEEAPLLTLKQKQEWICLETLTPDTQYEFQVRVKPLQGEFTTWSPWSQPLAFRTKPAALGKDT
Experiment: SPR

B1: Super-2 (ligand)
chain: APTSSSTKKTQLQLEHLLLDLQMILNGINNYKNPKLTRMLTFKFYMPKKATELKHLQCLEEELKPLEEVLNLAQSKNFHFDPRDVVSNINVFVLELKGSETTFMCEYADETATIVEFLNRWITFCQSIISTLT
A Kd of 3.3 nM was found for B1 in this work.
